From publication PMC1301591 (Nucleic Acids Research, 2005)

How the values were obtained:
[1] = target: Recombinant His-tagged BLM protein (human, UniProt P54132 1-1417); experiment: pull-down
[2] = target: T1, Recombinant His-tagged WRN protein (human, UniProt Q14191 1-1432); experiment: pull-down
[3] = target: T1, Recombinant His-tagged WRN protein; experiment: ELISA

Sequence of Recombinant His-tagged BLM protein (P54132 whole entry): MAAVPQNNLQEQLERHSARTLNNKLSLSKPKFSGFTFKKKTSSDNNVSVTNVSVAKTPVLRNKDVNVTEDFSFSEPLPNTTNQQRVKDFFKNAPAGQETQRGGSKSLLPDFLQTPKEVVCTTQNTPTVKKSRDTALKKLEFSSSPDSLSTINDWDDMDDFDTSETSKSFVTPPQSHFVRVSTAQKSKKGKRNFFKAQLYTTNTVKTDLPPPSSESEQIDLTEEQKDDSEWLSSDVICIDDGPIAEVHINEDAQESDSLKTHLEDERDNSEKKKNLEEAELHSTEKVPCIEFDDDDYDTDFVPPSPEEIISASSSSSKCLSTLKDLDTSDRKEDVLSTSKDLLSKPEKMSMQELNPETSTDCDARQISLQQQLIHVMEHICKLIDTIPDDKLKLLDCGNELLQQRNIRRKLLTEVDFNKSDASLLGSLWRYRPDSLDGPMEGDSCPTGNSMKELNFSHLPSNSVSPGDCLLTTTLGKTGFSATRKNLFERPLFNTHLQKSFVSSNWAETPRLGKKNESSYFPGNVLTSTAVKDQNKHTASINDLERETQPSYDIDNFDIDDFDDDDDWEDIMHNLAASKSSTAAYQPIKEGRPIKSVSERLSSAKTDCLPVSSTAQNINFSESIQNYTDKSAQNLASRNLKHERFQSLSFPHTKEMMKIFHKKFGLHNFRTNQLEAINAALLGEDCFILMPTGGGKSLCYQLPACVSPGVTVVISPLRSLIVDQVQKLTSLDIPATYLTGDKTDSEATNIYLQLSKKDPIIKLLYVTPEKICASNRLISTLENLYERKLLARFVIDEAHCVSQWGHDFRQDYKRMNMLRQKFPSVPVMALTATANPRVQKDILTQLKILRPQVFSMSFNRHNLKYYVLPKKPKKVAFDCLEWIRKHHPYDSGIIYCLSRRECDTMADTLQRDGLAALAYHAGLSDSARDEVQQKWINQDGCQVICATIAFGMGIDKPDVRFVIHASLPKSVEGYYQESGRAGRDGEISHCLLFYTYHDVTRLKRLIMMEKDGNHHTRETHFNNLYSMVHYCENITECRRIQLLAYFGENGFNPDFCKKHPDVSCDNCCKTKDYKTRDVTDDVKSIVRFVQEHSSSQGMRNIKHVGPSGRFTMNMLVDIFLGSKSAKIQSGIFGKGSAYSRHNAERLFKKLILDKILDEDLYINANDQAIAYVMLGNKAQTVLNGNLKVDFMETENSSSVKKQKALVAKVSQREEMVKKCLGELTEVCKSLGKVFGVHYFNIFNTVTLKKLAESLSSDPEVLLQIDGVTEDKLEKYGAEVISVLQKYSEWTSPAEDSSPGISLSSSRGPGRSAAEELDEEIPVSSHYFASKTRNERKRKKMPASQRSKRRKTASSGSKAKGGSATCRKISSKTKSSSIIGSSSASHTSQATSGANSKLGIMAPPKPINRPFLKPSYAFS
T1 sequence (Q14191 whole entry): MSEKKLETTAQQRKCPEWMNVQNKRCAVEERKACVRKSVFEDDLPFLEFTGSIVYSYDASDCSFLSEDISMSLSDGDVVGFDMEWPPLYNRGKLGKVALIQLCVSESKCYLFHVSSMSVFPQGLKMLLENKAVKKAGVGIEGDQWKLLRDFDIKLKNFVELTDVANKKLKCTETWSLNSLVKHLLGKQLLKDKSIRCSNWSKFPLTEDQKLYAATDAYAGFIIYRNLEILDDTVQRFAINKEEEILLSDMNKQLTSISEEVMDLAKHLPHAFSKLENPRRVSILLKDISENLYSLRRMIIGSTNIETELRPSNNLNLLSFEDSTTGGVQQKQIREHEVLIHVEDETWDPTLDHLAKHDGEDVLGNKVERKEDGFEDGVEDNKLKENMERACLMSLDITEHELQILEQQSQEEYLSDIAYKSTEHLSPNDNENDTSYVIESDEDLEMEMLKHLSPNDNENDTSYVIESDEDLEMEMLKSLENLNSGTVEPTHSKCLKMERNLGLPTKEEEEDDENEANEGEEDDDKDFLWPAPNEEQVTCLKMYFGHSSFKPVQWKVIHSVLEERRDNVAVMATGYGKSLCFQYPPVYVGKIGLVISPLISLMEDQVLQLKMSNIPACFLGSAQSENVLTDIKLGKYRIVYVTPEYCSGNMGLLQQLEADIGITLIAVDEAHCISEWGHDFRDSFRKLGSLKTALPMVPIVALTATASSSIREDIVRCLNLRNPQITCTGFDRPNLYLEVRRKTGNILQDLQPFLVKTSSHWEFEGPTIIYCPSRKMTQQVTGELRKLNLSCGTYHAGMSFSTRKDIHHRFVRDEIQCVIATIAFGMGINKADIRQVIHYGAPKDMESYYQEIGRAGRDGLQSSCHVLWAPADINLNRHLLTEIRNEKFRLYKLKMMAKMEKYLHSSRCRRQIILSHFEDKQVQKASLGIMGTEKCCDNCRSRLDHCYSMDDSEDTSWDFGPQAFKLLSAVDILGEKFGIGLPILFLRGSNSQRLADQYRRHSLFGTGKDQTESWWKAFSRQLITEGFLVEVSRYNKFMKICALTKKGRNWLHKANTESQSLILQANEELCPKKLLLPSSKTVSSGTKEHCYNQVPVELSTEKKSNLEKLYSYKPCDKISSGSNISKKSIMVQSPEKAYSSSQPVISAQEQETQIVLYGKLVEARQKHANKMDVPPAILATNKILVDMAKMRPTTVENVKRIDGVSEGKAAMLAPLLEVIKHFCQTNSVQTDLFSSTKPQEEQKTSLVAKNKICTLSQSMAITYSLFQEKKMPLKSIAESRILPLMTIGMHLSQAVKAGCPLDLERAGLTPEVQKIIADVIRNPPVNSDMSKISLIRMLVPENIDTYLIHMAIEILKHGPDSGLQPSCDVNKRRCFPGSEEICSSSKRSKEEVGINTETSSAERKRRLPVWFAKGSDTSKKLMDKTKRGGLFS

B1: GST–FEN-1 fusion protein containing human FEN-1 amino acids 254–380 (domain or fragment, UniProt P39748 254-380, looked up)
chain: KSIEEIVRRLDPNKYPVPENWLHKEAHQLFLEPEVLDPESVELKWSEPNEEELIKFMCGEKQFSEERIRSGVKRLSKSRQGSTQGRLDDFFKVTGSLSSAKRKEPEPKGSTKKKAKTGAAGKFKRGK
binding result [1]: binds
binding result [2]: binds

B2: GST–FEN-1 fusion protein containing human FEN-1 amino acids 328–380 (domain or fragment, UniProt P39748 328-380, looked up)
chain: LSKSRQGSTQGRLDDFFKVTGSLSSAKRKEPEPKGSTKKKAKTGAAGKFKRGK
binding result [1]: binds
binding result [2]: binds

STKKKAKTGAAGKFKRGK (domain or fragment, UniProt P39748 363-380, looked up) [GST–FEN-1 fusion protein containing human FEN-1 amino acids 363–380]
binding result [1]: binds
binding result [2]: binds

B3: FEN-1ΔP (residues 337–344 are deleted) (enzyme, human, UniProt P39748 1-380, looked up)
chain: MGIQGLAKLIADVAPSAIRENDIKSYFGRKVAIDASMSIYQFLIAVRQGGDVLQNEEGETTSHLMGMFYRTIRMMENGIKPVYVFDGKPPQLKSGELAKRSERRAEAEKQLQQAQAAGAEQEVEKFTKRLVKVTKQHNDECKHLLSLMGIPYLDAPSEAEASCAALVKAGKVYAAATEDMDCLTFGSPVLMRHLTASEAKKLPIQEFHLSRILQELGLNQEQFVDLCILLGSDYCESIRGIGPKRAVDLIQKHKSIEEIVRRLDPNKYPVPENWLHKEAHQLFLEPEVLDPESVELKWSEPNEEELIKFMCGEKQFSEERIRSGVKRLSKSRQGSTKVTGSLSSAKRKEPEPKGSTKKKAKTGAAGKFKRGK
binding result [3]: binds
